This note sets out measurements from patent US7833548B2, “Bioactive agent release coating and controlled humidity method” (Surmodics, Inc., priority 2002, dated 2010).

The data set can be described thus: Bioactive Agent Release Assay, dextran-TRITC from discs with polymer topcoat coated under controlled humidity. The data set is classed as physicochemical. The note with it: pEVA (33% vinyl acetate)/pBMA topcoat over dextran-TRITC layer, PBS, 37° C.; FIG. 2. How it is done: Two solutions were prepared in order to provide a coating composition of the presently claimed invention in the form of a two part system. The first solution was an aqueous solution containing the bioactive agent, dextran-TRITC, at a concentration of 15 mg/ml. The second solution contained poly(ethylene-co-vinylacetate) with a vinyl acetate concentration of 33% (w/w) and poly(n-butyl methacrylate), with approximate weight average molecular weight of 337 kilodaltons. The poly(n-butyl methacrylate) and poly(ethylene-co-vinylacetate) were purified by extraction with organic solvents to remove impurities, e.g., monomer residues. The polymers of the second solution were dissolved in tetrahydrofuran at a concentration of 10 mg/ml. […]
A suitable Bioactive Agent Release Assay, as describe herein, can be used to determine the extent and rate of bioactive agent release under physiological conditions. In general it is desirable that less than 50% of the total quantity of the bioactive agent be released in the first 24 hours. It is frequently desirable for quantities of bioactive agent to be released for a duration of at least 30 days.
Except as otherwise provided herein, each coated disc was placed in an amber vial with 4 mls of PBS. […] The concentration of bioactive agent in each PBS sample was determined using UV spectroscopy. […]

As for “tetramethylrhodamine isothiocyanate-Dextran [dextran-TRITC]”, the “release rate of the bioactive agent, topcoat coated at 48% relative humidity versus 10% relative humidity” value is reported as “released at a faster rate”.
